Assay results published in the supplement of paper PMC9732359.
± gives the uncertainty stated by the source.

Assay: protein stability index of a GFP-peptide fusion (yeast GPS) (PSI 1-4); higher = more stable; sorted into four equal gates, so the index is relative within each strain
In short: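 Each library plasmid carries Cherry plus GFP with a tiled 17-residue yeast protein peptide fused downstream, and the pooled library was carried in yeast. Mid-log cultures in leucine-free medium were sorted into four equal gates by GFP/Cherry ratio. Reads from Illumina sequencing of PCR-amplified plasmids from each gate were assigned to strains by barcodes. Per peptide, the protein stability index was computed as the summed products of gate read frequency and gate number.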

VNVEKFNVEYFAKEKLT [RPL6A]
protein stability index (doa10∆): 1.84 ± 0.039
protein stability index (pdr5∆): 1.96 ± 0.044
protein stability index (san1∆): 2.08 ± 0.069
protein stability index (ubr1∆): 2.37 ± 0.036

VPATAAPGTEAGIVPVS [SWI1]
protein stability index (doa10∆): 3.1 ± 0.069
protein stability index (pdr5∆): 3 ± 0.084
protein stability index (san1∆): 3.14 ± 0.066
protein stability index (ubr1∆): 3.15 ± 0.07

VPHYNRLDSYKVIEQPI [RPL25]
protein stability index (doa10∆): 1.8 ± 0.095
protein stability index (pdr5∆): 2.21 ± 0.11
protein stability index (san1∆): 2.02 ± 0.11
protein stability index (ubr1∆): 2.21 ± 0.11

VPMKEENLEESFLSKHA [SSN2]
protein stability index (doa10∆): 3.43 ± 0.094
protein stability index (pdr5∆): 3.69 ± 0.14
protein stability index (san1∆): 2.98 ± 0.2
protein stability index (ubr1∆): 3.35 ± 0.25

VPNSIGNIFSNIGTPSF [SNF5]
protein stability index (doa10∆): 2.8 ± 0.11
protein stability index (pdr5∆): 2.6 ± 0.1
protein stability index (san1∆): 1.33 ± 0.15
protein stability index (ubr1∆): 2.79 ± 0.061

VPPMKLAYSKIVNGQTF [YMR129W/POM152]
protein stability index (doa10∆): 1.37 ± 0.068
protein stability index (pdr5∆): 1.48 ± 0.072
protein stability index (san1∆): 1.09 ± 0.12
protein stability index (ubr1∆): 1.65 ± 0.053

VPPPPVRPSISFNESQR [RPO21]
protein stability index (doa10∆): 2.47 ± 0.037
protein stability index (pdr5∆): 2.78 ± 0.036
protein stability index (san1∆): 2.62 ± 0.039
protein stability index (ubr1∆): 2.45 ± 0.034

VPQTEEARAEAINLMGV [RPO31]
protein stability index (doa10∆): 3.15 ± 0.11
protein stability index (pdr5∆): 2.97 ± 0.1
protein stability index (san1∆): 3 ± 0.085
protein stability index (ubr1∆): 3.12 ± 0.052

VPRAALEERFDPKSPTK [YMR129W/POM152]
protein stability index (doa10∆): 3.15 ± 0.062
protein stability index (pdr5∆): 3.09 ± 0.064
protein stability index (san1∆): 3.01 ± 0.043
protein stability index (ubr1∆): 3.1 ± 0.047

VPSTTNVNMTVNTMGTG [MED6]
protein stability index (doa10∆): 3.23 ± 0.3
protein stability index (pdr5∆): 3.37 ± 0.11
protein stability index (san1∆): 2.91 ± 0.17
protein stability index (ubr1∆): 2.61 ± 0.13

VPVANQFINLAGYKKLG [QCR7]
protein stability index (doa10∆): 1.97 ± 0.14
protein stability index (pdr5∆): 2.5 ± 0.13
protein stability index (san1∆): 1.94 ± 0.17
protein stability index (ubr1∆): 2.48 ± 0.11

VPVRKFKGNNGVVVLRD [RPN2]
protein stability index (pdr5∆): 2.88 ± 0.18

VQESGNIDYQKGLLIWR [GRR1]
protein stability index (doa10∆): 3.35 ± 0.091
protein stability index (pdr5∆): 3.13 ± 0.1
protein stability index (san1∆): 3.37 ± 0.1
protein stability index (ubr1∆): 2.75 ± 0.079

VQGLLQNAAANAEAKGL [RPL17A]
protein stability index (doa10∆): 2.3 ± 0.094
protein stability index (pdr5∆): 2.76 ± 0.1
protein stability index (san1∆): 2.06 ± 0.1
protein stability index (ubr1∆): 2.4 ± 0.12

VQVRSVMDPITSKRKAE [DIS3]
protein stability index (doa10∆): 2 ± 0.13
protein stability index (pdr5∆): 2.41 ± 0.13
protein stability index (san1∆): 2.92 ± 0.079
protein stability index (ubr1∆): 2.79 ± 0.12

VRELFEMARTKKACIIF [RPT1]
protein stability index (doa10∆): 1.12 ± 0.093
protein stability index (pdr5∆): 1.29 ± 0.11
protein stability index (san1∆): 1.08 ± 0.21
protein stability index (ubr1∆): 1.66 ± 0.14

VRELGILCIFEGEKCHP [SEC65]
protein stability index (doa10∆): 2.01 ± 0.052
protein stability index (pdr5∆): 2.43 ± 0.064
protein stability index (san1∆): 2.67 ± 0.051
protein stability index (ubr1∆): 2.45 ± 0.042

VRILRLITTNSVEEVIL [SNF2]
protein stability index (doa10∆): 2.3 ± 0.093
protein stability index (pdr5∆): 2.12 ± 0.06
protein stability index (san1∆): 2.31 ± 0.081
protein stability index (ubr1∆): 1.68 ± 0.033

VRLRSNVIKTGIRIISL [RPN3]
protein stability index (doa10∆): 2.27 ± 0.21
protein stability index (pdr5∆): 2.35 ± 0.14
protein stability index (san1∆): 2.22 ± 0.23
protein stability index (ubr1∆): 2.44 ± 0.065

VRTHMRNMIIVPEMIGS [RPS15]
protein stability index (doa10∆): 1.25 ± 0.059
protein stability index (pdr5∆): 1.47 ± 0.06
protein stability index (san1∆): 1.39 ± 0.12
protein stability index (ubr1∆): 1.54 ± 0.05

VRTNTLTKAAIVQIDAT [RPS8A]
protein stability index (doa10∆): 2.233 ± 0.022
protein stability index (pdr5∆): 2.54 ± 0.023
protein stability index (san1∆): 2.37 ± 0.026
protein stability index (ubr1∆): 2.297 ± 0.019

VSEITKLKFFPSGEALI [RPN14]
protein stability index (doa10∆): 2.55 ± 0.089
protein stability index (pdr5∆): 2.76 ± 0.069
protein stability index (san1∆): 2.95 ± 0.064
protein stability index (ubr1∆): 3.18 ± 0.059

VSFYFEDGTIESYNQND [SIN4]
protein stability index (doa10∆): 2.2 ± 0.083
protein stability index (pdr5∆): 2.34 ± 0.1
protein stability index (san1∆): 2.41 ± 0.076
protein stability index (ubr1∆): 2.92 ± 0.084

VSKEGLYQLVDIRDSSC [YMR129W/POM152]
protein stability index (doa10∆): 2.83 ± 0.099
protein stability index (pdr5∆): 2.92 ± 0.084
protein stability index (san1∆): 2.7 ± 0.06
protein stability index (ubr1∆): 2.84 ± 0.05

VSKKWAAAAVCEKWAAS [RPL14A]
protein stability index (doa10∆): 2.42 ± 0.083
protein stability index (pdr5∆): 3.04 ± 0.15
protein stability index (san1∆): 2.6 ± 0.094
protein stability index (ubr1∆): 2.17 ± 0.077

VSLGTSIMAVTFKDGVI [PRE3]
protein stability index (doa10∆): 3.55 ± 0.12
protein stability index (pdr5∆): 3.12 ± 0.18
protein stability index (san1∆): 3.27 ± 0.075
protein stability index (ubr1∆): 3.6 ± 0.074

VSMYQNSSTSSTSNTPS [YDL088C/ASM4]
protein stability index (doa10∆): 2.59 ± 0.064
protein stability index (pdr5∆): 2.6 ± 0.064
protein stability index (san1∆): 2.58 ± 0.074
protein stability index (ubr1∆): 2.69 ± 0.046

VSNNEANTPSIPTNPVD [SWI3]
protein stability index (doa10∆): 3.14 ± 0.074
protein stability index (pdr5∆): 3.2 ± 0.09
protein stability index (san1∆): 2.97 ± 0.082
protein stability index (ubr1∆): 3.08 ± 0.065

VSPAFRVQVGDIVTVGQ [RPS11A]
protein stability index (doa10∆): 2.49 ± 0.091
protein stability index (pdr5∆): 2.96 ± 0.093
protein stability index (san1∆): 2.55 ± 0.14
protein stability index (ubr1∆): 2.42 ± 0.078

VSQQPLSRGYTCPGLSL [ECM29]
protein stability index (doa10∆): 3.02 ± 0.056
protein stability index (pdr5∆): 2.97 ± 0.04
protein stability index (san1∆): 3.02 ± 0.051
protein stability index (ubr1∆): 2.93 ± 0.044

VSSSLYERRFGPYFVGP [PUP3]
protein stability index (doa10∆): 2.79 ± 0.13
protein stability index (pdr5∆): 2.88 ± 0.16
protein stability index (san1∆): 2.62 ± 0.13
protein stability index (ubr1∆): 2.95 ± 0.095

VSTAKFSGKYLKYLTKK [RPL22A]
protein stability index (doa10∆): 3.17 ± 0.12
protein stability index (pdr5∆): 3.29 ± 0.11
protein stability index (san1∆): 3.41 ± 0.2
protein stability index (ubr1∆): 3.26 ± 0.12

VTDKYTAKKTNRSAYDS [YDL088C/ASM4]
protein stability index (doa10∆): 2.81 ± 0.089
protein stability index (pdr5∆): 3.26 ± 0.081
protein stability index (san1∆): 2.96 ± 0.14
protein stability index (ubr1∆): 2.79 ± 0.043

VTDNKTPEMNVTNNVEE [TAF14]
protein stability index (doa10∆): 3.28 ± 0.17
protein stability index (pdr5∆): 3.27 ± 0.12
protein stability index (san1∆): 3.35 ± 0.13
protein stability index (ubr1∆): 3.2 ± 0.17

VTDSSLLKLLTRLVQLR [GRR1]
protein stability index (doa10∆): 2.4 ± 0.054
protein stability index (pdr5∆): 1.7 ± 0.056
protein stability index (san1∆): 2.41 ± 0.074
protein stability index (ubr1∆): 1.84 ± 0.045

VTEMSNNANVLGGEIND [BRR2]
protein stability index (doa10∆): 3.18 ± 0.11
protein stability index (pdr5∆): 3.18 ± 0.12
protein stability index (san1∆): 3.51 ± 0.085
protein stability index (ubr1∆): 3.15 ± 0.064

VTFIFGELKRGNESVKP [MED11]
protein stability index (doa10∆): 3.43 ± 0.17
protein stability index (pdr5∆): 3.12 ± 0.077
protein stability index (san1∆): 2.97 ± 0.1
protein stability index (ubr1∆): 2.98 ± 0.15

VTKDLKLRREDEIIVYA [REC8]
protein stability index (doa10∆): 2.8 ± 0.069
protein stability index (pdr5∆): 2.73 ± 0.05
protein stability index (san1∆): 3.18 ± 0.056
protein stability index (ubr1∆): 2.96 ± 0.044

VTKGGTVENPLRNWEEL [PRP28]
protein stability index (doa10∆): 2.55 ± 0.073
protein stability index (pdr5∆): 2.71 ± 0.1
protein stability index (san1∆): 3.33 ± 0.055
protein stability index (ubr1∆): 2.89 ± 0.057

VTMGAKDKLREFIPHST [RPN6]
protein stability index (doa10∆): 3.46 ± 0.11
protein stability index (pdr5∆): 3.1 ± 0.14
protein stability index (san1∆): 2.96 ± 0.099
protein stability index (ubr1∆): 3.04 ± 0.11

VTPNDKIPEREEKSNEV [SIR4]
protein stability index (pdr5∆): 3.16 ± 0.24
protein stability index (san1∆): 3.42 ± 0.21

VTRIINSSEIQSAIRPA [RPL4A]
protein stability index (doa10∆): 2.32 ± 0.083
protein stability index (pdr5∆): 2.54 ± 0.12
protein stability index (san1∆): 2.37 ± 0.07
protein stability index (ubr1∆): 2.26 ± 0.096

VTSKVRNAEFKVSKNST [YMR153W/NUP53]
protein stability index (doa10∆): 3.08 ± 0.15
protein stability index (pdr5∆): 3.49 ± 0.19
protein stability index (san1∆): 2.98 ± 0.11
protein stability index (ubr1∆): 3.28 ± 0.29

VTVDADIDDILKKGEQK [ISW2]
protein stability index (doa10∆): 2.85 ± 0.12
protein stability index (pdr5∆): 2.76 ± 0.07
protein stability index (san1∆): 2.35 ± 0.084
protein stability index (ubr1∆): 2.72 ± 0.043
